What follows are substances tested against IL-13 receptor (IL-4Rα/IL-13Rα1) on TF-1 cells (human) (UniProt P78552) (assay: cell-based or functional assay).
Chain of IL-13 receptor (IL-4Rα/IL-13Rα1) on TF-1 cells (human) (P78552 22-427, chain 1 of 2): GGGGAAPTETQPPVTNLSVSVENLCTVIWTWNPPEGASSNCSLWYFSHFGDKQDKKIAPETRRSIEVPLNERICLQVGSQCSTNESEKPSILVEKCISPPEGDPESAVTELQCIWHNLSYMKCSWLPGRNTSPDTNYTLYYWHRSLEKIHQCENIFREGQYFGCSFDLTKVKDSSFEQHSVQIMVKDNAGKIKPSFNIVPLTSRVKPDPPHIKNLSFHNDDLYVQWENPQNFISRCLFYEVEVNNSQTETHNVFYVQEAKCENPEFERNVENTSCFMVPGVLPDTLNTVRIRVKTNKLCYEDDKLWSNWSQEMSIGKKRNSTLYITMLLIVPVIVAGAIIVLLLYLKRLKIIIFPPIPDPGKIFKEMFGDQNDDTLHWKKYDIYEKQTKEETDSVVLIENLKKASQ
Chain of IL-13 receptor (IL-4Rα/IL-13Rα1) on TF-1 cells (human) (P24394 26-825, chain 2 of 2, further chain): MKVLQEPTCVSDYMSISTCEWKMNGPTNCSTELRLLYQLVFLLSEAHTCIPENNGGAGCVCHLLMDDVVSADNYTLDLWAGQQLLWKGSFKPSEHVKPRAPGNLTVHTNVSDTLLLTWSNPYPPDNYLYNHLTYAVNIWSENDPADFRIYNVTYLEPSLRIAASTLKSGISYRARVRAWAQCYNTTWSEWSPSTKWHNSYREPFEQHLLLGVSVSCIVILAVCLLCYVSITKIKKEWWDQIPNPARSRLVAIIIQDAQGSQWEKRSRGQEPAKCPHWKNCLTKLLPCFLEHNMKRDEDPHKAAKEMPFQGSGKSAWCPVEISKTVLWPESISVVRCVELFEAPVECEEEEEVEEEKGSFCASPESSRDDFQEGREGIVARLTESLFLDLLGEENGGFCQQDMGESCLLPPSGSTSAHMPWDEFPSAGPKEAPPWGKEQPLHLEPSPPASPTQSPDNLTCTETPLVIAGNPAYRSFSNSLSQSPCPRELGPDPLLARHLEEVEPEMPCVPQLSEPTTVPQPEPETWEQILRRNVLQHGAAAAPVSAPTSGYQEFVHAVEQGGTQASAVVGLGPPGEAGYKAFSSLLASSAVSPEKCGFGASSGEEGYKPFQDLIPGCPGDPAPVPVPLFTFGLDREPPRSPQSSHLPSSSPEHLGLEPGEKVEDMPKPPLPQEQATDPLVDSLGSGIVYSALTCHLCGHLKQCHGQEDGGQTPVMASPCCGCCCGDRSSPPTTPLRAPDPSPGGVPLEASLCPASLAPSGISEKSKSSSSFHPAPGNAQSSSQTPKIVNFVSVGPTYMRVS

| Substance | Concentration of IL-13 required for 50% TF-1 cell proliferation (ED50, ave) |
| --- | --- |
| IL-13Q111 K104A (from UniProt P35225 35-146) (ligand) | 46.2 ng/mL |
| human IL-13 with glutamine at position 111 (IL-13Q111) (from UniProt P35225 35-146) (ligand) | 1.26 ng/mL |
| IL-13Q111 H102A (from UniProt P35225 35-146) (ligand) | 5.31 ng/mL |
| wild type human IL-13 with arginine in the 111 position (from UniProt P35225 35-146) (ligand) | 1.2 ng/mL |
| IL-13Q111 K25A (from UniProt P35225 35-146) (ligand) | 2.64 ng/mL |
| IL-13Q111 K105A (from UniProt P35225 35-146) (ligand) | 22.6 ng/mL |
| IL-13Q111 K97A (from UniProt P35225 35-146) (ligand) | 1.33 ng/mL |
| IL-13Q111 R108A (from UniProt P35225 35-146) (ligand) | 3.2 ng/mL |

— patent US20110009361A1
